Source: US20220073643A1 (NANJING GENSCRIPT BIOTECH, published 2022)
Substitutions are numbered along the chain they refer to. Blank lines part the entries; values can stand above or below the binder they belong to.

Target: human Claudin18.2 (human)
Experiment: cell-based or functional assay

CDC % Relative activity: 142%
CDC EC50: 1.21 µg/mL
B1: 267B2C5 (antibody, V domains shown)
VH: QVQLKESGPGLVAPSQSLAITCTVSGFSLTTYGVSWVRQPPGKGLEWLGVIWGDGSTHYHSALISRLSIRKDNSKSQVFLKVNSLQTDDTATYYCGKPGRGNAMDYWGQGTSVTVSS
VL: DIVMTQSPSSLTVTAGEKVTMSCKSSQSLLNSGNQKNYLTWYQQKPGQSPKLLIYWASTRESGVPDRFTGSGSGTDFTLTISSVQAEDLAVYYCQNDYIYPLTFGGGTTLELK

CDC % Relative activity: 67.6%
CDC EC50: 2.41 µg/mL
B2: 273C10E5 (antibody, V domains shown)
VH: QVQLQQSGAELVKPGASVKLSCKASGYTFTSFGINWLRQRPEQGLEWIGWIFPGDGNSKYNENFKGKATLTTDKSSSTAYMQVTRLTSEDSAVYFCARFYYGNSFANWGQGTLVTVSA
VL: B1 VL with S49P, S58A, T69A, I99F, L102F, G106A, T109K

CDC % Relative activity: 105%
CDC EC50: 1.56 µg/mL
B3: 273F3D4 (antibody, V domains shown)
VH: B1 VH with A19S, S28A, V82L, G96A
VL: B1 VL with T5S, V84M, G106A, T109M

CDC % Relative activity: 285%
CDC EC50: 0.909 µg/mL
B4: 393C2C5 (antibody, V domains shown)
VH: DVQLVESGGGLVQPGGSRKLSCAASGFTFSSFGMHWVRQAPEKGLEWVAYISSGSSPIYYADTVKGRFTISRDNPKNTLFLQMTSLRSEDTAMYFCATFYYGNSFAYWGQGTLVTVSA
VL: B1 VL with S28T, P46S, S49P, D97A, I99S, L102V, G106S, T109K, L110V

CDC % Relative activity: 107%
CDC EC50: 1.52 µg/mL
B5: 286C7F11 (antibody, V domains shown)
VH: QVQLKESGPGLVAPSQSLSITCTVSGFSLTDYGVSWIRQPPGKGLEWLGVIWNRGNTYYNSALKSRLSISKDNSKSQVFLRMNSLQTDDTAMYYCAKHDFLRFLDYWGQGTTLTVSS
VL: B1 VL with I2V, S49P, L52I, T78S, S82T, Q95L, I99Y, G106A, T109K

CDC % Relative activity: 379%
CDC EC50: 0.453 µg/mL
B6: 370E2B12C3 (antibody, V domains shown)
VH: QVQLKESGPGLVAPSQSLSITCTVSGFSLTTYGVHWVRQPPGKGLEWLGVIWAGGSTNYNSALMSRVSINKDNSKSQVFIKMNSLQADDTALYYCARAAYYGNGLDYWGQGTTLTVSS
VL: B1 VL with S28T, S49P, R60G, Y93F, D97A, I99F, L102F, T109K, L112I

CDC % Relative activity: 121%
CDC EC50: 1.35 µg/mL
B7: 280F3B6 (antibody, V domains shown)
VH: QAYLQQSGAELVRSGASVKMSCKASGYTFTSHNMHWVKQTPGQGLEWIGYIYPGNGGTNYNQKFKGKATLTADTSSSTAYMQISSLTSEDSAVYFCTRDYYGNSFAYWGQGTLVTVSA
VL: B1 VL with V13E, T14K, K18R, T20S, L30F, S49P, I99W, L102F, G106A, T109K

CDC % Relative activity: 151%
CDC EC50: 1.14 µg/mL
B8: 292D9C7 (antibody, V domains shown)
VH: B5 VH with N53G, R54G, T57A, R81K, Q86R, H98N, D99G, F100L, F103Y, T111S
VL: B1 VL with I2T, S49P, T75R, A86V, V91I, I99Y, G106A, T109K, L110V

CDC % Relative activity: 176%
CDC EC50: 1.47 µg/mL
B9: 391F1G2 (antibody, V domains shown)
VH: B4 VH with T98R, F99I
VL: B1 VL with T20A, S28T, S49P, I54L, D97A, I99Y, G106S, T109K

CDC % Relative activity: 129%
CDC EC50: 1.27 µg/mL
B10: 279E8B8 (antibody, V domains shown)
VH: B7 VH with M20I, T30A, N59K, K65T, T71S, M81L, T97A, Y101F, A106V
VL: B1 VL with V13E, T14K, T20S, S22R, S49P, E87D, I99M, L102F, G106A, T109K

CDC % Relative activity: 98.4%
CDC EC50: 1.66 µg/mL
B11: 275B2G2 (antibody, V domains shown)
VH: EVMLVESGGGLVKPGGSLKLSCAASGFTFRDYTMSWVRQTPEKRLEWVATSIIGGTYTYYPDSVKGRFTISRDNVKNTLYLQMSSLRSEDTAMYYCSRLGRGNAMDYWGQGTSVTVSS
VL: B1 VL with S49P, I99S, L102F, G106S, T109K, L112I

CDC % Relative activity: 526%
CDC EC50: 0.3 µg/mL
B12: 198F10B8 (antibody, V domains shown)
VH: QAYLQQSGAELVRSGASVRMSCKASGYTFSSYNMHWVKQTPGQGLEWIGYIYPGNGGTNYNQKFKDKATLTADTSSSTAFIQISSLTSEDSAVYFCLTGRGFAYWGQGTLVTVSA
VL: B1 VL with K18R, L30F, S49P, W56R, I99S, G106V, T109K

CDC % Relative activity: 93.6%
CDC EC50: 1.69 µg/mL
B13: 196A12B10 (antibody, V domains shown)
VH: QIQWVQSGPELKKPRETVKISCKASGYTFTDYSMHWVKQAPGKGLKWMGWINSETGEATYADDFRGRFALSLETSATTAFLQINSLKNEDTGTYFCARFYYGNSFASWGQGTTLTVSS
VL: DIVMTQFPSSLTVTAGEKVTMTCKSSQSLLNGGNQKNYLTWYQQKPGLPPKLLIYWASTRESGVPDRFTGSGSGTEFTLTISSVQAEDLAVYYCQNNYYFPLTFGAGTKLELK

CDC % Relative activity: 106%
CDC EC50: 1.54 µg/mL
B14: 277F1F8 (antibody, V domains shown)
VH: B7 VH with A9P, Y52N, T58N, T97A, Y107F
VL: B1 VL with V13E, T20S, S49P, I99R, Y100F, L102F, G106A, T109K

CDC % Relative activity: 144%
CDC EC50: 1.8 µg/mL
B15: 395B3C11 (antibody, V domains shown)
VH: B4 VH with S31G, V37I, A40T, S56R, K65Q, T98R, A106D, Y107H, A118S
VL: B1 VL with S10F, S49P, V91L, D97A, I99S, Y100F, G106A, T109K

CDC % Relative activity: 125%
CDC EC50: 2.07 µg/mL
B16: 391H11H3 (antibody, V domains shown)
VH: B4 VH with S31G, V37I, A40T, S56R, K65Q, T98R, A106D, Y107H, A118S
VL: B1 VL with S10F, S49P, V91L, D97A, I99S, Y100F, G106A, T109K

CDC % Relative activity: 101%
CDC EC50: 2.57 µg/mL
B17: 406F11G8 (antibody, V domains shown)
VH: B4 VH with P75S, T98R, F99I
VL: B1 VL with T20A, S28T, S49P, D97A, I99Y, G106S, T109K

CDC % Relative activity: 140%
CDC EC50: 1.23 µg/mL
B18: 268D7H9 (antibody, V domains shown)
VH: B7 VH with S31N, H32Y, M34I, T58N, N59Y, T97A
VL: B1 VL with V3A, S22N, S49P, V91I, I99Y, G106A

CDC % Relative activity: 145%
CDC EC50: 1.12 µg/mL
B19: 271B1B6 (antibody, V domains shown)
VH: B7 VH with S31N, H32Y, M34I, T58N, N59Y, S77I, T97A
VL: B1 VL with S22N, S49P, V91I, I99Y, G106A, T109K

CDC % Relative activity: 125%
CDC EC50: 2.07 µg/mL
B20: 406E1H7 (antibody, V domains shown)
VH: B4 VH with S31G, V37I, A40T, S56R, K65Q, T98R, A106D, Y107H, A118S
VL: B1 VL with S10F, S49P, V91L, D97A, I99S, Y100F, G106A, T109K

CDC % Relative activity: 133%
CDC EC50: 1.95 µg/mL
B21: 392A11C8 (antibody, V domains shown)
VH: B4 VH with S31G, V37I, A40T, S56R, T98R, A106D, Y107H
VL: B1 VL with S10F, K24R, S49P, V91L, D97A, I99S, Y100F, G106A, T109K

CDC % Relative activity: 97.4%
CDC EC50: 1.77 µg/mL
B22: 266B11F7 (antibody, V domains shown)
VH: QVQMKESGPGLVAPSQSLSITCTVSGFSLTTYGVTWVRQPPGKGLEWLGVIWGDGSTNYHSALTSRLRISKDKSKSQVFLKLSSLQTDDTATYYCAKPGRGNALDYWGQGTSVTVSS
VL: B1 VL with S22R, S49P, I54V, I81V, Y100F, G106A, T109K

CDC % Relative activity: 131%
CDC EC50: 1.98 µg/mL
B23: 394C2G5 (antibody, V domains shown)
VH: B4 VH with S31G, V37I, A40T, I51V, S56R, T98R, A106D, Y107H
VL: DIVMTQSPSFLTVTAGEKVTMSCKSSQSLLNSGNQKNYLTWYQQKPGQPPKLLIYWASTRESGVPDRFTGSGSGTDFTLTINNVQAEDLALYYCQNAYSFPLTFGAGTKLELT

CDC % Relative activity: 0.08%
CDC EC50: 3220 µg/mL
B24: 405G8F11 (antibody, V domains shown)
VH: B4 VH with A23V, A24T, T84S, T98R
VL: DIVMTQSPSSLTVTAGEKVTMNCKSSQSLLNSGNQKNYLTWYQQKLGQPPKLLMYWASTRESGVPDRFTGSGSGTDFTLTISSVQAEDLAVYFCQSAFSYPLTFGAGTKLELK

CDC % Relative activity: 172%
CDC EC50: 1 µg/mL
B25: 267H5F12 (antibody, V domains shown)
VH: B7 VH with Y52S, G57Y, K65R, A106T
VL: DIVMTQSPSSLTEKAGERVSMSCKSSQSLFNSGNQKNYLTWYQQKPGQPPKLLIYWASTRESGVPDRFTGSGSGTEFTLTISSVQAEDLAVYYCQNNYWFPFTFGAGTKLELK

CDC % Relative activity: 142%
CDC EC50: 1.15 µg/mL
B26: 275H9A2 (antibody, V domains shown)
VH: B7 VH with K23R, T28S, T58S, N59Y, T69I, A106V
VL: B25 VL with I2V, A15T, R18K, F30L, E76D, V84L, A86T, Y98F, W99R, F100Y

CDC % Relative activity: 5.43%
CDC EC50: 47.6 µg/mL
B27: 392C2F10 (antibody, V domains shown)
VH: EVQLQQSGPELVKPGASMKISCKASGYSFTGYTMNWVKQSLGKNLEWIGLINPFNGGTTYNQKFKGKATLTVDKSSSTAYMELLSLTSDDSAVYYCTRGDYWGQGTTLTVSS
VL: DIVMTQSPSSLTVTAGEKVTMSCKSSQSLLNSGNQKNYLTWYQQKPGQPPKLLIYWASTRESGVPDRFAGSGSGTDFTLTISSVQAEDLAVYYCQSDYSYPTFGAGTKLELK
